Reference: US20140234336A1

Assays:
Assay in all cases: cell-based or functional assay
[1] = target: HA of H1N1 influenza virus A/OH/07/2009 (influenza A virus H1N1 A/OH/07/2009)
[2] = target: HA of H2N2 influenza virus A/Ann Arbor/6/60, CA (influenza A virus H2N2 A/Ann Arbor/6/60, CA)
[3] = target: HA of H3N2 influenza virus A/Beijing/32/92-R-H3 (influenza A virus H3N2 A/Beijing/32/92-R-H3)
[4] = target: HA of H3N2 influenza virus A/Beijing/353/89-X109 (influenza A virus H3N2 A/Beijing/353/89-X109)
[5] = target: HA of H3N2 influenza virus A/Brisbane/10/07 (influenza A virus H3N2 A/Brisbane/10/07)
[6] = target: HA of H3N2 influenza virus A/Hong Kong/68 (influenza A virus H3N2 A/Hong Kong/68)
[7] = target: HA of H3N2 influenza virus A/Johannesburg/33/94 R-H3 (influenza A virus H3N2 A/Johannesburg/33/94 R-H3)
[8] = target: HA of H3N2 influenza virus A/Nanchang/933/95 (influenza A virus H3N2 A/Nanchang/933/95)
[9] = target: HA of H3N2 influenza virus A/Panama/2007/99 (influenza A virus H3N2 A/Panama/2007/99)
[10] = target: HA of H3N2 influenza virus A/Sydney/5/97 (influenza A virus H3N2 A/Sydney/5/97)
[11] = target: HA of H3N2 influenza virus A/Wisconsin/67/05 (influenza A virus H3N2 A/Wisconsin/67/05)
[12] = target: HA of H9N2 influenza virus A/Green-winged teal/209/TX/2009 (influenza A virus H9N2 A/Green-winged teal/209/TX/2009)

CT149 antibody
MN titer [1]: 10 µg/mL
MN titer [2]: > 20 µg/mL
MN titer [3]: 0.078 µg/mL
MN titer [4]: 0.156 µg/mL
MN assay: lowest antibody concentration at which no virus antigen was detected [5]: 1.25 µg/mL
MN titer [5]: 0.625 µg/mL
MN assay: lowest antibody concentration at which no virus antigen was detected [6]: 2.5 µg/mL
MN titer [7]: 0.625 µg/mL
MN titer [8]: 0.625 µg/mL
MN titer [9]: 0.312 µg/mL
MN titer [10]: 0.625 µg/mL
MN assay: lowest antibody concentration at which no virus antigen was detected [11]: 1.25 µg/mL
MN titer [12]: 0.156 µg/mL
